This is an account of results in publication PMC4180932, “Reorganisation of the Salivary Mucin Network by Dietary Components: Insights from Green Tea Polyphenols” (PLOS One, 2014).

As a reminder, the stoichiometry N is a count of units in the complex or per binding partner.

The target of data set [1] is CT5B, recombinant C-terminal construct of MUC5B (D4-B-C-CK domains, residues 4958-5765) (human). Description: SDS-PAGE; purified recombinant protein seen as monomer and dimer; gels of gradient fractions, silver stained (NT5B) or Coomassie stained (CT5B).
Data set [2] deals with the molecule itself. The description is as above.

“CT5B, recombinant C-terminal construct of MUC5B (D4-B-C-CK domains, residues 4958-5765) (domain or fragment)”: the stoichiometry N in data set [1] turned out to be 2.

B1: NT5B, recombinant N-terminal construct of MUC5B (D1-D2-D′-D3 domains, residues 26-1304) (domain or fragment, human, UniProt Q9HC84 26-1304, looked up)
chain: QGPVEPSWENAGHTMDGGAPTSSPTRRVSFVPPVTVFPSLSPLNPAHNGRVCSTWGDFHYKTFDGDVFRFPGLCNYVFSEHCRAAYEDFNVQLRRGLVGSRPVVTRVVIKAQGLVLEASNGSVLINGQREELPYSRTGLLVEQSGDYIKVSIRLVLTFLWNGEDSALLELDPKYANQTCGLCGDFNGLPAFNEFYAHNARLTPLQFGNLQKLDGPTEQCPDPLPLPAGNCTDEEGICHRTLLGPAFAECHALVDSTAYLAACAQDLCRCPTCPCATFVEYSRQCAHAGGQPRNWRCPELCPRTCPLNMQHQECGSPCTDTCSNPQRAQLCEDHCVDGCFCPPGTVLDDITHSGCLPLGQCPCTHGGRTYSPGTSFNTTCSSCTCSGGLWQCQDLPCPGTCSVQGGAHISTYDEKLYDLHGDCSYVLSKKCADSSFTVLAELRKCGLTDNENCLKAVTLSLDGGDTAIRVQADGGVFLNSIYTQLPLSAANITLFTPSSFFIVVQTGLGLQLLVQLVPLMQVFVRLDPAHQGQMCGLCGNFNQNQADDFTALSGVVEATGAAFANTWKAQAACANARNSFEDPCSLSVENENYARHWCSRLTDPNSAFSRCHSIINPKPFHSNCMFDTCNCERSEDCLCAALSSYVHACAAKGVQLSDWRDGVCTKYMQNCPKSQRYAYVVDACQPTCRGLSEADVTCSVSFVPVDGCTCPAGTFLNDAGACVPAQECPCYAHGTVLAPGEVVHDEGAVCSCTGGKLSCLGASLQKSTGCAAPMVYLDCSNSSAGTPGAECLRSCHTLDVGCFSTHCVSGCVCPPGLVSDGSGGCIAEEDCPCVHNEATYKPGETIRVDCNTCTCRNRRWECSHRLCLGTCVAYGDGHFITFDGDRYSFEGSCEYILAQDYCGDNTTHGTFRIVTENIPCGTTGTTCSKAIKLFVESYELILQEGTFKAVARGPGGDPPYKIRYMGIFLVIETHGMAVSWDRKTSVFIRLHQDYKGRVCGLCGNFDDNAINDFATRSRSVVGDALEFGNSWKLSPSCPDALAPKDPCTANPFRKSWAQKQCSILHGPTFAACRSQVDSTKYYEACVNDACACDSGGDCECFCTAVAAYAQACHDAGLCVSWRTPDTCPLFCDFYNPHGGCEWHYQPCGAPCLKTCRNPSGHCLVDLPGLEGCYPKCPPSQPFFNEDQMKCVAQCGCYDKDGNYYDVGARVPTAENCQSCNCTPSGIQCAHSLEACTCTYEDRTYSYQDVIYNTTDGLGACLIAICGSNGTIIRKAVACPG
notes: MUC5B, human, D1-D2-D′-D3 domains, residues 26-1304; Purified as a mixture of monomer and dimer (75 and 150 kDa as printed); also called N-terminal MUC5B protein
Consider B1, for which the “stoichiometry N” value in data set [2] was 2.
